Patent publication US20160177324A1, “NOVEL PROTEIN AND GENE RELATED TO FLAVONOID O-METHYLTRANSFERASE (FOMT) AND THEIR USES THEREFORE” (INSTITUTE OF BOTANY, THE CHINESE ACADEMY OF SCIENCES, priority 2013, published 2016)

Experiments:
[1] = Biochemical characterization of PsFOMT reaction conditions (pH, temperature, divalent cations, Mg2+ concentration)
Experimental: For quantitative analyses, reaction conditions were optimized. The pH dependence of FOMTs activity was assessed in the pH range of 4.5 to 8.5 using MES (4.5-6.5) and Tris-HCl (7.5-8.5) buffer. The effect of divalent cations on enzyme activity was estimated by adding to the reaction mixture containing 10 mM MgCl2, CaCl2, ZnCl2, MnCl2, CoCl2 or EDTA. The proper concentration of metal ion was assessed by testing different concentrations of MgCl2 (0.1, 0.2, 0.5, 1.0, 5.0 and 10 mM). Incubation temperature was set at 25, 30, 35 and 40° C. to detect the effect on enzyme activity.
(§1) The reaction system was according to Hugueney et al. with some modification (Hugueney, P., et al., A novel cation-dependent O-methyltransferase involved in anthocyanin methylation in grapevine. Plant Physiology, 2009. 150(4): p. 2057-2070.). Purified recombinant FOMT (2 μg) was assayed in a final volume of 200 μL containing 200 μM SAM, 1 mM MgCl2, 14 mM β-mercaptoethanol, 100 mM Tris, pH 7.5, and 20 μM flavonoid substrates. Incubation was performed at 35° C. and stopped with 200 μL methanol containing 2% formic acid. For enzyme kinetic studies, purified FOMT was incubated based on the above condition with the exception that a range of substrate concentrations from 5 to 200 μM were used for Km determination. Reaction product was analyzed by a Dionex HPLC system (Sunnyvale, Calif.), equipped with a P680 HPLC pump, an UltiMate 3000 autosampler, a TCC-100 thermostated column compartment and a Dionex PDA100 photodiode array detector. The analytical column was C18 column of ODS 80Ts QA (150 mm×4.6 mm, 5 μm i.d., Tosoh, Tokyo) protected with a C18 guard cartridge (Shanghai ANPEL Scientific Instrument, Shanghai). The following solvent and gradient were used: A, 10% aqueous formic acid; B, methanol; constant gradient from 10 to 36% B within 15 min and back to 10% B in 3 min; the flow rate was 0.8 mL min^−1; Column temperature was maintained at 35° C.; 20 μL of analyte was injected. Chromatograms were obtained at 525 nm for anthocyanins and 350 nm for other flavonoids, and photodiode array spectra were recorded from 200 to 800 nm. Km and Vmax values were calculated from Lineweaver-Burk plots.

[2] = Comparison of activities among recombinant polypeptides with site mutagenesis; format: biochemical; conditions: Cy3G5G as substrate
Experimental: as §1
To validate the key amino acid responsible for the activity, site-directed mutagenesis was carried out using the PCR method and Fast Mutagenesis System (TransGen), and primer sequences used are given in Table 1. Four constructs were built following the template sequence of PtFOMT, named as PtFOMT-G13E, PtFOMT-T85A, PtFOMT-R87L, and PtFOMT-T205R. The corresponding recombinant proteins were purified and the catalytic activities were examined. […] The other mutants have no significant improved activity compared with PtFOMT. The leucine at 87-position is a vital residue for the methyltransferase activity.

[3] = tested on: Fragaria×ananassa cv. 'Hongyan' fruits; experiment: Transient expression in strawberry fruit (coexpression with PAP1); format: in vivo
Experimental: A strawberry cultivar, Fragaria×ananassa cv. ‘Hongyan’ (The Beijing Agricultural Technology Extension Station) with fruits turning red were chosen as subjects. A single colony of Agrobacterium strain EHA105 with pBI121-FOMT construct was inoculated, and the pellet were centrifuged and washed with infiltration buffer (50 mM Mes, pH 5.6, 2 mM Na3PO4, 0.5% glucose (w/v), and 100 mM acetosyringone) according to Hoffmann et al. (Hoffmann, T., G. Kalinowski, and W. Schwab, RNAi-induced silencing of gene expression in strawberry fruit (Fragaria×ananassa) by agroinfiltration: a rapid assay for gene function analysis. Plant Journal, 2006. 48(5): p. 818-826.). The bacterial suspension was diluted with infiltration buffer to adjust the inoculum concentration to OD600 0.1-0.3. A syringe infiltration method was used to transient transform strawberry fruits. The infiltrated fruits were harvested after four days for anthocyanin content analyses as follow. […] The MS conditions were listed as follow: negative-ion (NI) mode; capillary voltage of 3.5 kV; a nebulization pressure of 241.3 kPa; and a gas (N2) temperature of 350° C. with flow rate of 6.0 L min^−1 Capillary offset voltage was 77.2 V. MS spectra were recorded over the range from m/z 50-1000.

B1: PsFOMT: flavonoid O-methyltransferase from tree peony Paeonia suffruticosa cv. 'Gunpohden', SEQ ID NO: 3; recombinant MBP fusion protein (protein, listed as Paeonia suffruticosa)
chain: MAESDRKGILKSEALLKYILETSVYPREHEQLKQLRQATVDKYKYWSVMNVPADEGQFLSMLLKIMNAKKTIEVGVFTGYSLLTAALALPTDAKITAIDPDGEAYETGLPFIKKAGVEHKINYIQADAMSVLDDLVTNGKEEGSFDFAFVDADKENYAKYHEPLMKLVKIGGIIGYDNTLWFGSVALSDGDEMKEFQEKGRRIFREFNTFLAADPRIELAHISIGDGLALCRRLY
modifications: MBP fusion
notes: recombinant MBP fusion protein
[1]; 10 mM EDTA
  activity in the presence of EDTA: could not been detected
[1]; 10 mM MgCl2, CaCl2, ZnCl2, MnCl2, CoCl2
  influence of different divalent cations on activity: most active in the presence of Mg^2+
[1]; 25-40° C.
  effect of increasing incubation temperature on activity: accelerated
[1]; MgCl2 0.1-10 mM tested
  optimal concentration of Mg^2+: 1.0 mM
[1]; on the substrate of Qu3R
  pH optimum: 7.5
[1]; substrate Qu3R, pH 4.5 to 8.5 tested
  pH dependence range of activity in vitro: 6.5-8.5
[2]; Incubation 5 min
  Activity (%), portion of recombinant protein activity compared with PsFOMT: 100%
[2]; Incubation 30 min
  Activity (%), portion of recombinant protein activity compared with PsFOMT: 100%
[3]
  proportion of methylated products (Pn type) to precursors (Cy type): more than that of PtFOMT
